# The supplement of paper PMC12636428
# Tested on: Saccharomyces cerevisiae
# Assay: transcriptional activation domain activity (GFP:mCherry ratio, weighted mean of sorted bins, harmonized to initial dataset scale) (arbitrary fluorescence ratio units); higher = stronger transcriptional activation
# Conditions: beta-estradiol 1 µM; induction time 4 h
# Outline: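 Each value is an activation activity: the read-weighted mean of bin median fluorescence, averaged across barcodes, then mapped linearly to the initial dataset scale. The tiles, fused to an estradiol-inducible synthetic transcription factor, sat at the yeast URA3 locus in GFP-reporter diploids. Cells spent 4 hours at 30 °C in SC with 1 uM beta-estradiol before sorting into 8 GFP:mCherry bins, and tiles below 50 reads were removed.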
row,Sequence,transcriptional activation domain activity
1,TELYRFTLAQSEQPGMYPLDLAWLDWDLVSSLWSYSLWSIQLSIYFFCPFAYF,61400
2,LPTINTAIPTAAVPQQNIAPPFLNTNSSATDSNPNTNLEDSLFFDHDLLSSSI,49800
3,PGEVSEAEANGEVKAEGEVVATDDAAKPKKKKSKKSRKARAAKAATEDEEGAA,< 6570
4,MIHLLQYAYLFLFLLMLYDTLCHAILFFLTLNLTNWWYPIPFNMILHFIVPLF,45300
5,MAIDIFFCLAVHIPTCVNLWGHVRTILYVQLVTVMYPSHFLFYFLFLLFYFFL,34200
6,NRVIGVQGKNQEGACYEKLSPSSTSVSVGMDFCSLENFVTAESLPDLLNLFWE,111000
7,LMLQRLDIIRQILYLYRDPHLQIVLNRYYKSFNRRKIFLMNPVINALSNMPYF,47500
8,CEMQFAKDTVVRRYCLLLECLELLPVSAIKAVTRMLHRIVVKCGCVAMFFKMS,70400
9,AKADGKRGRTGTGARRGKGKKVTREARGRRKVKRRRGARAGKGSAGRERERGE,34800
10,RMGRWKHGWRKWWWKFYKWCFLWMIEVIRVVKVVGIVIVGCIYLGLRFFIFVE,57000
11,KKSDEKDDTKPKKKKAKHDDADKESKKKLKKASKEKKSKSTKSKKDTAENAIA,42900
12,MSSWDGTQGSSSNGQVRKRRRIALACDSCRARKSRCDGRRPQCSSCAGQGTKC,43400
13,KPKPKPKQYPKVILPSNSTRRVSPVTAKTSSSAEGVVVASESPVIAPHGSSHS,47200
14,EARNIVGIKNIDLYKGPLFVFWAPMNPSHVGWNGGMHLYAWRCKLLSNLPYHF,25600
15,NKVLRWALDSHIKKWSLDHLRTIAHLIQVVELHHFWSEKENAVALIRVIFKSL,59700
16,RTMGKQDPYCAMRLGKEAKKTNTDRRGGQTPRWDQELRFTVHDSPDYYKLKCS,44300
17,EKGGRDKDKDGRPANAKPKSKPHGKTPKPQQQRDGKKSATLKENAAPAAPAAA,24800
18,MILKHIHSCHALASFVVSLHSFPLLFSCPSRGLCGIVALETVFLFFFFPLFQL,75600
19,LNRWQKLLSWDVAYQIEGMLRRLLVDVKEMLSLMARIRAMILRYDSHYTAAFL,71500
20,DNPSFLPLDIEQSSYDLSEDAMSYPIISTQSNRDCTQYDNTKISQILQSQLNP,63900
21,SNARGSDPSSYAIEGEYKTLATDDLGNILNLNYGETNEVIMNEINDLNLPLGP,112000

row,Sequence,transcriptional activation domain activity
1,QVLVLLLILLVFLVFQFLQMLSFLLKLPFVLKLEILLVLLVTKLWVFLFHLLL,41500
2,RDKKKARAKGGAGAAGGEKKAEGAAAGDAAAAADGEDEEREGKRRKIARAAEG,42200
3,YTKTIATRNVANQTRLGKVRKSSVIVIAGNGHGRLGVGMAKSIEAPVATMAAT,56400
4,MSSTPNCARQQPNRSESARNRTKDNCAACREKRLKCDKDGGRKTCSSDSQPSS,37400
5,NGELPHENGGRETKVKFEGTAAPKESRIGQMRQHLLLLAESQHRFIRHCGTHG,29600
6,FCQISGFSLAVGIESSDIAVLLIALHSVMYIFSPLSGLYPYRQLAYLVYYLFP,49400
7,MTGRHLWGIGVLFLPLLFFLLDFPFFSFSFLLMCLCEILSIFFWLHFSLGREG,44900
8,TKLCTIGINCIFIIWHIADILIESPSHLPDIFTVFNVIISCSLFLLLFVYFVY,27600
9,MLRLLAMLAKYVAFLLVLLNIRSFPLVWHFRLFRAFIQLGLSLQWHKLTHFYL,60600
10,EPGEEYHHSNGTNTDNNETTGADDTDDNNNNNNNNNKNGNNSSSTINNNNNNY,35700
11,TIHLVNTIQVIVLILDRFLYGIIPLFEIHTCAFFPLLISFWHVSYLLYYVIMF,37200
12,MRGTSLFLFYFISFLSLFLFQLLHFFFFSYFLFRYFVSIIIIFFLIQVVFGLV,53200
13,VETRSFWFLPVIQKHALHLTMVDILSSTPGIWCLSEFMIGHLLLCVHLRSISV,60500
14,MCASVILFCLVFSSSYLLAIFKDCYLALLYYMQCWSMYYLFSDFVCHYPISKG,72200
15,ATSVWLRVFFIAVSSIAVIPILNFWGLCKLWGFIFFFSCGNVYVGLLFTVVLF,62300
16,RGGGRKKKEADGEDGETTPKKTPRKRAAKEAEDGDASPKKKGRPAKAKPRQEP,17900
17,GGGSAVWIFLYCVWYYFVKLQITGFLSSLLFFSYSLMACCVYGLLTGMVGFLT,60400
18,MNLTLFYYTFLLSFFLIYCVVLNLYLRFFPANFVNMPLFISLTFLKCAWIPLL,56200
19,SPFASAGQTGQSPFGGLNKASSPAFAGTGSGSTFGQASTLGGAFGKPAEPAAT,32400
20,MMMGTIVKSFFLFTFTFSIFFFYFFPRVLFTPFFFYILDLSLFFIVVLIFFSF,54300
21,VACEEEMRKLDEEDGRAGLGKGGEGEADREFKRHLRRMRASEVRIVRNVGDLL,29000

row,Sequence,transcriptional activation domain activity
1,TGGLPELREHLDDGRASYAYARVTYSNDKESQREKFVLVVWIGPACKVMRKAK,25700
2,MSYGKRDEDAELGLVKVDRTQVFQEARLFNSSPIQPRKCRILLTKIALLLYTG,24100
3,MDSRPGSFATGVFRAQPVDNTPRKIQKRNRPPVSCLLCRTRKVKCNRQQPCER,33500
4,GFVGENSASASVVEVLLRTGGFSTRSLRRRLLETFQLVLEVTHSLAFIKPGGK,53300
5,MWLIWLIWLLALLVDLFSFSVLFFFSLSLFLSFFWFFFFSFFQSFFPFLAVSF,66900
6,VRTALLKSSHDADIDATVHDQAVREFCSSLNAVTRGVNVLVMTVALLVEIYAA,84400
7,EGGEGGSGSGSGGNAKTRRKGRRRGSSRDGAGAGAGAGAGEGAGGEVGRSKKK,7430
8,MFLLFSLCVDFKGVLGGWLLFFFLLAFDGFTRLLWGDVICFFFYLLLFATTHV,57600
9,MILRIWGFHYLYMLVPGWYLCFRFSFFLFYFLFLFLLQFLHITLPFSCLVSFW,46200
10,AASAPAASSPSASAPADEAAENGEEAASSSKNKKKKKKGAAGGAAPAAGGKKP,40700
11,VDRSHLELIFGLPIWRLSGILVQTVWYVFQTGFSTLLSLCLFLVSAKRWIVWR,52400
12,RLLVTTYRMFFILVVTLNLIALALVTVGHFPYADNHIGVILLGNLLCAVMIRN,29800
13,SDEEEKPKPKQGKKKAKAPKKEEEFEGEPEEEEKPKPKKTNGRKKAVKAEEED,36300
14,SVEVEMEDAPKPKRRGRPPGSGKKKAPAGEDAAAAAPEKKKRTPAKKASAGSA,42700
15,LLIFYFLFSCICIHFQQHLGLPLYLFNQDWYYAWQALAKQYFGLLLITMTKWW,53400
16,GRWSYLRTSEMILTFFYKNIMWTLVLFWYQLMCSFTGTMMFDYSYITLYNLVF,63400
17,MLCLGLVDVYVNFLIFQLYNFLFLFGFLRWINEFVFGFPIHCLFCVILYLLIL,30900
18,ADSGDEYVQDRRDGPAKGGKAPRREKDGRDEEGGRKKAAKKRKRKVQAQPEID,30100
19,RWGLGRWWVPFQLFVIFWDLDNWPVFGLRPWVFEFMEGPLEYVLSFLVLFTAK,67500
20,CLAGKDLFGTLFGLRVIIQVVGILMSIPHTLVVTTRWIRRMLLVYFLDQLYYT,80600
21,MYQIEALYLILTYKSIPFYHFNYFSIELIIKPTYLFLYLFFSYLFLHWLNLFD,35100

row,Sequence,transcriptional activation domain activity
1,MPPPRKPHRKSRYGCIQCKRRHVKCDEEKPCRRCLDREEQCSLKPDVAAADIT,17600
2,WRHLFLGQLPLLMSEPFTNSTPIIDPLLNNDFELIDFEVNLMKYLQSKDQQLS,117000
3,KASARKKRAPKKSDEGKRGEKEGNRSANGSNDEDDDRDSSSSSSSNDEATSRS,11200
4,LIALPCLMAFATICFAFVAWKLYGEFAWTIYKHISADLRLKRRYLTYQIYIAL,50200
5,ATAAAAVKSPRSKSKEPKKSLDAAAAVAATSPAPVAAEEPAAAAVVEEPAKPA,41400
6,FSLGTVLLALCRYLPFGTILQIYVLFLRVESPLCVNGYRAIAFPVVCLWVLLV,52600
7,FYTLIVEEDQSLWLCLKWCFFDMLFMFGIPLLEIPWLEWSNGAAFLLFVLHAG,63300
8,PQQNIAPPFLNTNSSATDSNPNTNLEDSLFFDHDLLSSSITNTNNGQGSNNGR,24800
9,LHLCLQVTKAYLERFHKFDPADITVCCSSVMFHFACAMKVLYRLLLLDDPGWD,59900
10,ELKEGDPKVCAGKAVNEKGEVVDKDGNVIGKVDVVPGEAAFEAMKALKERLGE,< 6570
11,RMPKDCKSREFRDKAHDAVDAFAVDLEKRLRDENRPALLKLACLLMVLHQIEL,58600
12,MSLPGGFIFCCLFIFIFFAPFYSTFLRFFFPSCFYLFFYICCSFFFFFFFFPP,38900
13,MMYDSLSSLFVSTLFFSLYEFLCLSCPLCFNYPFQVGFCTLFLFFHPLFAFMQ,34500
14,GGGGGGAEGARGANESGGRGDGRRRGAGARARARQGGRGRGGGGRGGTKGGRG,9940
15,KGEKDKENDKGEKGEGEKKGENRSRRRRGGRGRGSGDKDKEKDKDGGGGAKKA,27800
16,TQLIELNVPMGKVGMVVDNSSDKLEIEDIVVYWSLRSRPVWLVYVRAFLKSII,56200
17,RHHPEIINALVTLIATASTTHVKYTFQGILDHYSYYVLVDGFTLKQLTWMQGI,62700
18,QTDPEKKRVWENKILETLERRPSKKCDYILLRSEQLVGTALIVLVKSELTSVI,54900
19,ENNVPLLERFREFPWLLSDLIFPFMMEYMLVWYLIWETILNILAELTYFADRS,27300
20,YVAPGVASPIPVNYIWTPFASWRLVAILISLLSLYSWGMLIFFFWFLFWLLLY,< 6570
